Results published in article PMC4464074, “The HRDC domain of E. coli RecQ helicase controls single-stranded DNA translocation and double-stranded DNA unwinding rates without affecting mechanoenzymatic coupling”.

What was measured:
Assay in all cases: fluorescence anisotropy; SF50: 50 mM Tris-HCl pH 7.5, 50 mM NaCl, 1 mM DTT, 5 mM MgCl2, 50 µg/mL BSA, 25 °C; anisotropy with 10 nM forked duplex
Settings in all cases: protein: recombinant; label: 3'-fluorescein on fork2; fork: 33 bp duplex with two 21-nt ssDNA arms (3' arm of fork1, 5' arm of fork2)
RecQWT = RecQWT (Escherichia coli, UniProt P15043 1-609)
RecQ523 = RecQ523 (Escherichia coli, UniProt P15043 1-523)
RecQY555A = RecQY555A (Escherichia coli, UniProt P15043 1-609, Y555A)

B1: forked duplex (fork1/fork2) (mixed)
DNA 1: CGTTGCGCAATTAAGCTCTAAGCCATCCGCAAATTTTTTTTTTTTTTTTTTTTT
DNA 2: TCCTTTTGATAAGAGGTCATTTTTGCGGATGGTTAGAGCTTAATTGCGCAACG
- Kd (RecQWT): 13 ± 4 nM
- Kd (RecQ523): 60 ± 2 nM
- Kd (RecQY555A): 46 ± 2 nM
